{"source": "paper PMC6238592", "biological_target": "human FACT (FAcilitates Chromatin Transcription), full length (human) (UniProt Q9Y5B9)", "assay": "AUC; SV-AUC, absorbance optics; 1.8 μM FACT incubated with histones at the indicated molar ratios for 10 min at room temperature; 150 mM NaCl, 20 mM Tris pH 8.0, 1 mM TCEP; 20°C"}
{"substance": "histone H2A–H2B dimer (no label stated) (from UniProt P06897 1-130; P02281 1-126) (complex)", "values": [{"measurement": "stoichiometry N (H2A–H2B per FACT)", "result": 1}]}
